Data as given in US20180230213A1 (AVEO PHARMACEUTICALS, published 2018).
Where a chain is given by its changes, count along the chain named. Names and notes keep the numbering of the source.

T1: monomeric recombinant human Notch3 extracellular domain (containing EGF like domains 1-11) fusion protein (human, UniProt Q9UM47 40-467)
T1 construct: domain: EGF like domains 1-11; also called monomeric rhNotch3
T1 sequence (looked up): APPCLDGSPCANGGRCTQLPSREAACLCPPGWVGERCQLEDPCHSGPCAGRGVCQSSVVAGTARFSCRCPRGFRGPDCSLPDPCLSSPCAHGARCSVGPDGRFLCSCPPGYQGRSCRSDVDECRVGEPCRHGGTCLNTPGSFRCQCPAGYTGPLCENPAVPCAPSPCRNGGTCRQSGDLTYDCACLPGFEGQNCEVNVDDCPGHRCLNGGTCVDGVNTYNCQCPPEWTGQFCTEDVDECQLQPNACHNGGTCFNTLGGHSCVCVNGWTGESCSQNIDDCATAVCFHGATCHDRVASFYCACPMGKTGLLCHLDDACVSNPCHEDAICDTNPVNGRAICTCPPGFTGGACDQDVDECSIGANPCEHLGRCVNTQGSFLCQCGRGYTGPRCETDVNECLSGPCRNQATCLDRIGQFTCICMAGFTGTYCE

B1: Hu4F11-70 (antibody, human IgG1, kappa, V domains shown)
VH: EVQLLESGGGLVQPGGSLRLSCAASGFTFSHYDMSWVRQAPGKGLEWVSYISRGGGSTYYPDSVKGRFTISRDNSKNTLYLQMNSLRAEDTAVYYCGRHATTAYWYFDVWGQGTMVTVSS
VL: DVVMTQTPLSLSVTPGQPASISCRSSQSLVHTHGNTYLHWYLQKPGQSPQLLIYKVSNRFSGVPDRFSGSGSGTDFTLKISRVEAEDVGVYFCSQSTHVPWTFGQGTKVEIKR
notes: Humanized, human IgG1 kappa; Hv3-23 A28T S31H T62S heavy + Kv2D-29 N28H kappa
B2: Hu4F11-79 (antibody, human IgG1, kappa, V domains shown)
VH: B1 VH with H31S
VL: B1 VL with H33Q
notes: Humanized, human IgG1 kappa; Hv3-23 A28T T62S heavy + Kv2D-29 N28Q kappa
B3: Hu4F11-76 (antibody, human IgG1, kappa, V domains shown)
VH: B1 VH with T28A
VL: B1 VL with H33Y
notes: Humanized, human IgG1 kappa; Hv3-23 S31H T62S heavy + Kv2D-29 N28Y kappa
B4: Hu4F11-75 (antibody, human IgG1, kappa, V domains shown)
VH: B1 VH with H31S
VL: B1 VL with H33Y
notes: Humanized, human IgG1 kappa; Hv3-23 A28T T62S heavy + Kv2D-29 N28Y kappa
B5: Hu4F11-71 (antibody, human IgG1, kappa, V domains shown)
VH: B1 VH with H31S
VL: B1 VL
notes: Humanized, human IgG1 kappa; Hv3-23 A28T T62S heavy + Kv2D-29 N28H kappa
B6: Hu4F11-80 (antibody, human IgG1, kappa, V domains shown)
VH: B1 VH with T28A
VL: B1 VL with H33Q
notes: Humanized, human IgG1 kappa; Hv3-23 S31H T62S heavy + Kv2D-29 N28Q kappa
B7: Hu4F11-72 (antibody, human IgG1, kappa, V domains shown)
VH: B1 VH with T28A
VL: B1 VL
notes: Humanized, human IgG1 kappa; Hv3-23 S31H T62S heavy + Kv2D-29 N28H kappa
B8: Hu4F11-74 (antibody, human IgG1, kappa, V domains shown)
VH: B1 VH
VL: B1 VL with H33Y
notes: Humanized, human IgG1 kappa; Hv3-23 A28T S31H T62S heavy + Kv2D-29 N28Y kappa
B9: Hu4F11-73 (antibody, human IgG1, kappa, V domains shown)
VH: B1 VH with H31N
VL: B1 VL with H33Y
notes: Humanized, human IgG1 kappa; Hv3-23 A28T S31N T62S heavy + Kv2D-29 N28Y kappa
B10: Hu4F11-69 (antibody, human IgG1, kappa, V domains shown)
VH: B1 VH with H31N
VL: B1 VL
notes: Humanized, human IgG1 kappa; Hv3-23 A28T S31N T62S heavy + Kv2D-29 N28H kappa
B11: Hu4F11-32 (antibody, human IgG1, kappa, V domains shown)
VH: B1 VH with T28A, H31S, S63T
VL: B1 VL with H33N
notes: Humanized, human IgG1 kappa; Sh4F11 Hv3-23 heavy + Hu4F11 Kv2D-29 kappa
B12: Hu4F11-78 (antibody, human IgG1, kappa, V domains shown)
VH: B1 VH
VL: B1 VL with H33Q
notes: Humanized, human IgG1 kappa; Hv3-23 A28T S31H T62S heavy + Kv2D-29 N28Q kappa
B13: Hu4F11-77 (antibody, human IgG1, kappa, V domains shown)
VH: B1 VH with H31N
VL: B1 VL with H33Q
notes: Humanized, human IgG1 kappa; Hv3-23 A28T S31N T62S heavy + Kv2D-29 N28Q kappa

Each binder was assayed against T2, monomeric recombinant cynomologus monkey Notch3 extracellular domain (containing EGF like domains 1-12) … (cynomologus monkey) (assay: SPR BIAcore T100, antibody captured by anti-human IgG Fc, monomeric rcNotch3 analyte, 25 C).
T2 construct: domain: EGF like domains 1-12; also called monomeric rcNotch3
Description: (§1) The binding affinities and kinetics of binding of chimeric and humanized antibodies to monomeric recombinant human Notch3 extracellular domain (containing EGF like domains 1-11) fusion protein (monomeric rhNotch3) and monomeric recombinant cynomologus monkey Notch3 extracellular domain (containing EGF like domains 1-12) fusion protein (monomeric rcNotch3) were measured by surface plasmon resonance, using a BIAcore® T100 instrument (GE Healthcare, Piscataway, N.J.).
(§2) Goat anti-human IgGs (Fc fragment specific, Jackson ImmunoResearch, West Grove, Pa.) were immobilized on carboxymethylated dextran CM4 sensor chips by amine coupling, according to a standard protocol. Analyses were performed at 25 and 37° C. using PBS containing 0.05% surfactant P20 as running buffer. The antibodies were captured in individual flow cells at a flow rate of 10 μL/minute. Injection time was varied for each antibody to yield an Rmax between 30 and 60 RU. Buffer or Notch3 protein diluted in running buffer was injected sequentially over a reference surface (no antibody captured) and the active surface (antibody to be tested) for 240 seconds at 60 μL/minute. The dissociation phase was monitored for up to 900 seconds. The surface was then regenerated with two 60-second injections of 10 mM Glycine-HCl, pH 2.25, at a flow rate of 30 μL/minute. The Notch3 concentration range tested was 50 nM to 6.25 nM.
Kinetic parameters were determined using the kinetic function of the BIAevaluation software (GE Healthcare) with double reference subtraction. Kinetic parameters for each antibody, kₐ (association rate constant), kd (dissociation rate constant), and KD (equilibrium dissociation constant) were determined.

Kd | koff | kon | Binder
5.2 nM | 0.001 s⁻¹ | 200000 M⁻¹ s⁻¹ | B1
3.4 nM | 0.0046 s⁻¹ | 1.3e+06 M⁻¹ s⁻¹ | B2
2.5 nM | 0.0019 s⁻¹ | 780000 M⁻¹ s⁻¹ | B3
3.7 nM | 0.0026 s⁻¹ | 720000 M⁻¹ s⁻¹ | B4
2.7 nM | 0.004 s⁻¹ | 1.5e+06 M⁻¹ s⁻¹ | B5
4 nM | 0.0032 s⁻¹ | 820000 M⁻¹ s⁻¹ | B6
1.6 nM | 0.0045 s⁻¹ | 2.8e+06 M⁻¹ s⁻¹ | B7
2.8 nM | 0.0025 s⁻¹ | 900000 M⁻¹ s⁻¹ | B8
2.6 nM | 0.0019 s⁻¹ | 760000 M⁻¹ s⁻¹ | B9
7.7 nM | 0.00094 s⁻¹ | 120000 M⁻¹ s⁻¹ | B10
18 nM | 0.0075 s⁻¹ | 790000 M⁻¹ s⁻¹ | B11
2.2 nM | 0.0038 s⁻¹ | 1.8e+06 M⁻¹ s⁻¹ | B12
2.6 nM | 0.0025 s⁻¹ | 960000 M⁻¹ s⁻¹ | B13

The binders below were run against T2, monomeric recombinant cynomologus … (assay: SPR BIAcore T100, antibody captured by anti-human IgG Fc, monomeric rcNotch3 analyte, 37 C).
Description: as §1, §2

Kd | koff | kon | Binder
9.1 nM | 0.0029 s⁻¹ | 370000 M⁻¹ s⁻¹ | B1
23 nM | 0.021 s⁻¹ | 980000 M⁻¹ s⁻¹ | B2
12 nM | 0.0062 s⁻¹ | 540000 M⁻¹ s⁻¹ | B3
24 nM | 0.0089 s⁻¹ | 380000 M⁻¹ s⁻¹ | B4
14 nM | 0.0056 s⁻¹ | 410000 M⁻¹ s⁻¹ | B5
12 nM | 0.01 s⁻¹ | 910000 M⁻¹ s⁻¹ | B6
9.8 nM | 0.0032 s⁻¹ | 440000 M⁻¹ s⁻¹ | B7
12 nM | 0.0045 s⁻¹ | 440000 M⁻¹ s⁻¹ | B8
15 nM | 0.0063 s⁻¹ | 500000 M⁻¹ s⁻¹ | B9
11 nM | 0.0038 s⁻¹ | 400000 M⁻¹ s⁻¹ | B10
32 nM | 0.016 s⁻¹ | 500000 M⁻¹ s⁻¹ | B11
11 nM | 0.007 s⁻¹ | 660000 M⁻¹ s⁻¹ | B12
12 nM | 0.01 s⁻¹ | 910000 M⁻¹ s⁻¹ | B13

These binders were tested against T1, monomeric recombinant human Notch3 … (assay: SPR BIAcore T100, antibody captured by anti-human IgG Fc, monomeric rhNotch3 analyte, 37 C).
Description: as §1, §2

Kd | koff | kon | Binder
3 nM | 0.0028 s⁻¹ | 940000 M⁻¹ s⁻¹ | B1
3.2 nM | 0.006 s⁻¹ | 1.8e+06 M⁻¹ s⁻¹ | B2
3.3 nM | 0.0055 s⁻¹ | 1.7e+06 M⁻¹ s⁻¹ | B3
3.4 nM | 0.009 s⁻¹ | 2.7e+06 M⁻¹ s⁻¹ | B4
3 nM | 0.0037 s⁻¹ | 1.2e+06 M⁻¹ s⁻¹ | B5
3.8 nM | 0.0041 s⁻¹ | 1.1e+06 M⁻¹ s⁻¹ | B6
5.2 nM | 0.00094 s⁻¹ | 180000 M⁻¹ s⁻¹ | B7
3.9 nM | 0.0022 s⁻¹ | 560000 M⁻¹ s⁻¹ | B8
5.9 nM | 0.0013 s⁻¹ | 210000 M⁻¹ s⁻¹ | B9
2.9 nM | 0.0038 s⁻¹ | 1.3e+06 M⁻¹ s⁻¹ | B10
2.7 nM | 0.0046 s⁻¹ | 1.7e+06 M⁻¹ s⁻¹ | B11
3.8 nM | 0.0055 s⁻¹ | 1.5e+06 M⁻¹ s⁻¹ | B12
3.3 nM | 0.0073 s⁻¹ | 2.2e+06 M⁻¹ s⁻¹ | B13

What follows are binders tested against T1, monomeric recombinant human Notch3 … (assay: SPR BIAcore T100, monomeric rhNotch3 analyte, 37 C, average of Table 16 and additional measurements).
Description: as §2

Kd | koff | kon | Binder
7.5 nM | 0.0039 s⁻¹ | 690000 M⁻¹ s⁻¹ | B1
16 nM | 0.0091 s⁻¹ | 900000 M⁻¹ s⁻¹ | B2
8.2 nM | 0.0064 s⁻¹ | 980000 M⁻¹ s⁻¹ | B3
10 nM | 0.013 s⁻¹ | 1.7e+06 M⁻¹ s⁻¹ | B4
9.2 nM | 0.0095 s⁻¹ | 1.1e+06 M⁻¹ s⁻¹ | B5
14 nM | 0.0056 s⁻¹ | 590000 M⁻¹ s⁻¹ | B6
7 nM | 0.0069 s⁻¹ | 710000 M⁻¹ s⁻¹ | B7
10 nM | 0.0051 s⁻¹ | 490000 M⁻¹ s⁻¹ | B8
11 nM | 0.0046 s⁻¹ | 490000 M⁻¹ s⁻¹ | B9
8.5 nM | 0.0037 s⁻¹ | 710000 M⁻¹ s⁻¹ | B10
7.6 nM | 0.084 s⁻¹ | 7.4e+06 M⁻¹ s⁻¹ | B11
9 nM | 0.006 s⁻¹ | 820000 M⁻¹ s⁻¹ | B12
8.6 nM | 0.0074 s⁻¹ | 1.2e+06 M⁻¹ s⁻¹ | B13
